How the values were obtained:
Experiment in all cases: cell-based or functional assay
[1] = target: envelope of standard panel pseudotyped virus SVPB15 (HIV-1 subtype B)
[2] = target: envelope of standard panel pseudotyped virus SVPB18 (HIV-1 subtype B)
[3] = target: envelope of HIV-1 strain YU2 (HIV-1 strain YU2) (UniProt P35961)
[4] = target: envelope of standard panel pseudotyped virus SVPB13 (HIV-1 subtype B)
[5] = target: envelope of standard panel pseudotyped virus SVPB16 (HIV-1 subtype B)
[6] = target: envelope of HIV-1 strain BaL (HIV-1 strain BaL)
[7] = target: envelope of standard panel pseudotyped virus SVPB5 (HIV-1 subtype B)
[8] = target: envelope of standard panel pseudotyped virus SVPB14 (HIV-1 subtype B)
[9] = target: envelope of HIV-1 strain JRFLGPER
[10] = target: envelope of HIV-2 strain EHO (HIV-2 strain EHO)
[11] = target: envelope of HIV-1 strain IIIB (HIV-1 strain IIIB)
[12] = target: envelope of HIV-1 strain SF162 (HIV-1 strain SF162) (UniProt P19550)
[13] = target: envelope of HIV-2 strain ROD (HIV-2 strain ROD) (UniProt P04577)
[14] = target: envelope of HIV-1 strain 89.6 (HIV-1 strain 89.6) (UniProt Q73372)
[15] = target: envelope of standard panel pseudotyped virus SVPB12 (HIV-1 subtype B)
[16] = target: envelope of standard panel pseudotyped virus SVPB8 (HIV-1 subtype B)
[17] = target: envelope of HIV-1 strain JR-FL (JRFLwt), on virus (HIV-1 strain JR-FL)
[18] = target: envelope of standard panel pseudotyped virus SVPB11 (HIV-1 subtype B)
[19] = target: envelope of standard panel pseudotyped virus SVPB6 (HIV-1 subtype B)
[20] = target: envelope of standard panel pseudotyped virus SVPB17 (HIV-1 subtype B)

Sequence of envelope of HIV-2 strain ROD (HIV-2 strain ROD) (P04577 20-858): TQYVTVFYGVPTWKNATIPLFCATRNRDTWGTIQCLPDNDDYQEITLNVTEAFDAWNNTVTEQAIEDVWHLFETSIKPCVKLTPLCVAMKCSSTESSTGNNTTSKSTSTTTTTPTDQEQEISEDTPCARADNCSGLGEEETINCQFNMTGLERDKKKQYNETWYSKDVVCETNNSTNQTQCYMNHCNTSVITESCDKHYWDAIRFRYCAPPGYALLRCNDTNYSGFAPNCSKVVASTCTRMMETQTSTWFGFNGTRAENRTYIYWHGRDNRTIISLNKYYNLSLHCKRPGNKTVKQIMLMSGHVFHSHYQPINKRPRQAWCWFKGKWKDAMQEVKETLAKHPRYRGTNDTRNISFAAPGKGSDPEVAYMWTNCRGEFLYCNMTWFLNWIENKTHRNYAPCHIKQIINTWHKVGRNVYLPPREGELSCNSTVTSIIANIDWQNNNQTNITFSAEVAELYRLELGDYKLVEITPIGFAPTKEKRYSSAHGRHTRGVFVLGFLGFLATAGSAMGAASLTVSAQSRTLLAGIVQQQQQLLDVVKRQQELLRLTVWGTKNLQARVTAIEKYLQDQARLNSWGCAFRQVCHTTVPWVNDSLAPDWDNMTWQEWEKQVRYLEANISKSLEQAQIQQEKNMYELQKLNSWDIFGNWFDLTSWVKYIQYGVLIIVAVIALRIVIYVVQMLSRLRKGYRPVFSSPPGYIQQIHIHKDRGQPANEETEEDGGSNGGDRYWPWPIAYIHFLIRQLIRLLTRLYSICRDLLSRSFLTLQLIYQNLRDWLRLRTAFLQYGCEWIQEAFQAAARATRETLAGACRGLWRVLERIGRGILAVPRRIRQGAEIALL
Sequence of envelope of HIV-1 strain YU2 (HIV-1 strain YU2) (P35961 32-843): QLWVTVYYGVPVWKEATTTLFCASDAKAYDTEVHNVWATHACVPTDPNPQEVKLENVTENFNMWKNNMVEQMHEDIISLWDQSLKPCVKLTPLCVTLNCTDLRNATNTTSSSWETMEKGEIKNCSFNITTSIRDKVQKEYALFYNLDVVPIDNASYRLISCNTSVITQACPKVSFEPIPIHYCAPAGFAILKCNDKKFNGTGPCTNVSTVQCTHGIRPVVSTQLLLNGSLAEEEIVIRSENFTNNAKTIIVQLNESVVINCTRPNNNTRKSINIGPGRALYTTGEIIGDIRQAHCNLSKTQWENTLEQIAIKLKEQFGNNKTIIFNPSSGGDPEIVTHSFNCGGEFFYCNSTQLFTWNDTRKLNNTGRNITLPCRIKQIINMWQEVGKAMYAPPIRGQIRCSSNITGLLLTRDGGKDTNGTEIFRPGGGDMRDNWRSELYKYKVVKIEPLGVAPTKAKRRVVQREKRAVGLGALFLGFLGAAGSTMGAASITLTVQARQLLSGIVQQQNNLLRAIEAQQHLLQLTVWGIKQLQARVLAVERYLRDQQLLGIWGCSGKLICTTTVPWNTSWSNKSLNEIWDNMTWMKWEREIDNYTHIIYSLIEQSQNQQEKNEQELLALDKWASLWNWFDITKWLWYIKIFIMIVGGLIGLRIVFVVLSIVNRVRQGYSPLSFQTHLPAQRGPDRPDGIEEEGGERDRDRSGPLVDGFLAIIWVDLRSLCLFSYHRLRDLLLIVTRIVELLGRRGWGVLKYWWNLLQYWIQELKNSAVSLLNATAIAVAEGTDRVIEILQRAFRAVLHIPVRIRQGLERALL

In the case of KD-247 (antibody), the IC50 in TZM-bl cells [1] is reported as greater than 50 µg/mL, the IC50 in TZM-bl cells [2] is reported as 28 µg/mL and the IC50, neutralizing activity (MTT assay) [3] is reported as greater than 50 µg/mL. The IC50 in TZM-bl cells [4] was greater than 50 µg/mL, the IC50 in TZM-bl cells [5] was greater than 50 µg/mL and the IC50, neutralizing activity (MTT assay) [6] was 3.8 µg/mL. For the same substance, the IC50 in TZM-bl cells [7] was 1.8 µg/mL, the IC50 in TZM-bl cells [8] was greater than 50 µg/mL and the IC50, neutralizing activity (MTT assay) [9] was greater than 50 µg/mL. For the same substance, the IC50, neutralizing activity (MTT assay) [10] was greater than 50 µg/mL, the IC50, neutralizing activity (MTT assay) [11] was greater than 50 µg/mL and the IC50, neutralizing activity (MTT assay) [12] was 0.21 µg/mL. The IC50, neutralizing activity (MTT assay) [13] was greater than 50 µg/mL, the IC50, neutralizing activity (MTT assay) [14] was 4.2 µg/mL and the IC50 in TZM-bl cells [15] was greater than 50 µg/mL. It also gave an IC50 in TZM-bl cells [16] greater than 50 µg/mL, an IC50, neutralizing activity (MTT assay) [17] of 12 µg/mL and an IC50 in TZM-bl cells [18] greater than 50 µg/mL. It also gave an IC50 in TZM-bl cells [19] greater than 50 µg/mL and an IC50 in TZM-bl cells [20] of 17 µg/mL.
